The source of these data is patent publication US20200308294A1 (published 2020).

The target of one experiment is VEGF (UniProt P15692). Kind of experiment: VEGF co-incubated with AB160, particulate removed, free VEGF in the supernatant measured by ELISA. A general note: In an ELISA, binding on a coated surface is turned into a signal by an enzyme label.
The target in experiment [1] is AB160 (nanoparticle of albumin-bound paclitaxel and bevacizumab, ratio about 10:4, average size 160 nm) (UniProt P02768). Kind of experiment: flow cytometry of particles stained with goat anti-mouse IgG and PE detection. A general note: In flow cytometry, cells or beads pass a laser one at a time.
The target in experiment [2] is ABRAXANE (albumin-bound paclitaxel) (UniProt P02768). Kind of experiment: flow cytometry of particles stained with goat anti-mouse IgG and PE detection; ABX alone as comparison.
Experiment [3] has as its target T1, ABRAXANE (albumin-bound paclitaxel) (UniProt P02768 25-609, non-covalently bound paclitaxel (nanoparticle of about 130 nm)).
T1 construct: A nanoparticle of many albumin molecules with paclitaxel, not a single protein; also called ABX; Paclitaxel Albumin-stabilized Nanoparticle Formulation
Kind of experiment: VEGF co-incubated with ABX for 2 hours, particulate spun down, free VEGF in the supernatant measured by ELISA.
Procedure: The VEGF was incubated with the nanoparticles for 2 hours at room temperature. The suspension was spun at 6000 rpm for 15 minutes, supernatants were collected and free VEGF was measured by ELISA. Briefly, ELISA plates were coated with capture antibody overnight at 4° C. Plates were washed, blocked and standards and samples were added. After washing, detection antibody was added and plates were developed with substrate (R and D Systems, Minneapolis, Minn.). […] The concentration of unbound VEGF was determined with a standard curve from 0 to 2000 μg/ml.

As for “AB160 (nanoparticle of albumin-bound paclitaxel and bevacizumab, ratio about 10:4, average size 160 nm) (from UniProt P02768 25-609)”, the % VEGF unbound in the experiment with VEGF is under 10%.
For goat anti-mouse IgG (antibody), the % positive in experiment [1] was 41.2%; in experiment [2], 6.7%.

B1: VEGF (ligand, UniProt P15692-4 27-191, looked up)
chain: APMAEGGGQNHHEVVKFMDVYQRSYCHPIETLVDIFQEYPDEIEYIFKPSCVPLMRCGGCCNDEGLECVPTEESNITMQIMRIKPHQGQHIGEMSFLQHNKCECRPKKDRARQENPCGPCSERRKHLFVQDPQTCKCSCKNTDSRCKARQLELNERTCRCDKPRR
notes: Soluble VEGF added to the nanoparticles
As for B1, in experiment [3], the binding result was “no binding (tested: >80% VEGF unbound)”.
